Measured values reported in PMC314469, “Protein Interaction Networks by Proteome Peptide Scanning” (PLoS Biology, 2004).
Blank lines part the entries; values can stand above or below the binder they belong to.

Assays:
[1] = target: T1, amphyphisin SH3 (AMPH_HUMAN), P49418; test: SPOT array
T1 chain: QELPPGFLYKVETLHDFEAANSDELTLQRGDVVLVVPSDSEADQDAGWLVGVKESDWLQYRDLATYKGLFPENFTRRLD

[2] = target: endophilin SH3 (SH3G2_HUMAN), Q99962; test: SPOT array

normalised SPOT signal, Boehringer light units (BLU); mean over the file's lines of this peptide [1]: 370
normalised SPOT signal, Boehringer light units (BLU); mean over the file's lines of this peptide [2]: 0
B1: P46459 379-392 (peptide)
chain: IDEALLRPGRLEVK

normalised SPOT signal, Boehringer light units (BLU); mean over the file's lines of this peptide [1]: 7780
normalised SPOT signal, Boehringer light units (BLU); mean over the file's lines of this peptide [2]: 5490
B2: O75163 275-288 (peptide)
chain: ALPRPIRPHRNISA

normalised SPOT signal, Boehringer light units (BLU); mean over the file's lines of this peptide [1]: 49.7
normalised SPOT signal, Boehringer light units (BLU); mean over the file's lines of this peptide [2]: 49.6
B4: BAC05287 132-146 (peptide)
chain: HVQSPEKPPTSPRE

normalised SPOT signal, Boehringer light units (BLU); mean over the file's lines of this peptide [1]: 34.4
normalised SPOT signal, Boehringer light units (BLU); mean over the file's lines of this peptide [2]: 153
B6: P33551 65-78 (peptide)
chain: HILLFRRPLPKKPK

normalised SPOT signal, Boehringer light units (BLU); mean over the file's lines of this peptide [1]: 932
normalised SPOT signal, Boehringer light units (BLU); mean over the file's lines of this peptide [2]: 142
B12: O15069 1001-1014 (peptide)
chain: IAEALSRPGREASL

normalised SPOT signal, Boehringer light units (BLU); mean over the file's lines of this peptide [1]: 50.5
normalised SPOT signal, Boehringer light units (BLU); mean over the file's lines of this peptide [2]: 27.4
B16: O14791 6-19 (peptide)
chain: HTVELRRPSSDMEG

normalised SPOT signal, Boehringer light units (BLU); mean over the file's lines of this peptide [1]: 12.1
normalised SPOT signal, Boehringer light units (BLU); mean over the file's lines of this peptide [2]: 40
B17: P33552 65-78 (peptide)
chain: HILLFRRPLPKDQQ

normalised SPOT signal, Boehringer light units (BLU); mean over the file's lines of this peptide [1]: 18
normalised SPOT signal, Boehringer light units (BLU); mean over the file's lines of this peptide [2]: 22.2
B18: O60747 405-419 (peptide)
chain: HHHLPERPPFIPEG

normalised SPOT signal, Boehringer light units (BLU); mean over the file's lines of this peptide [1]: 1070
normalised SPOT signal, Boehringer light units (BLU); mean over the file's lines of this peptide [2]: 1790
B19: O60281 1125-1138 (peptide)
chain: HKAHLIRPRRLTPG

normalised SPOT signal, Boehringer light units (BLU); mean over the file's lines of this peptide [1]: 553
normalised SPOT signal, Boehringer light units (BLU); mean over the file's lines of this peptide [2]: 3470
B20: O43763 237-251 (peptide)
chain: ALPRPLRPPLPPDP

normalised SPOT signal, Boehringer light units (BLU); mean over the file's lines of this peptide [1]: 2890
normalised SPOT signal, Boehringer light units (BLU); mean over the file's lines of this peptide [2]: 224
B27: P28749 775-788 (peptide)
chain: HSTGINRPKRTGSL

normalised SPOT signal, Boehringer light units (BLU); mean over the file's lines of this peptide [1]: 2410
normalised SPOT signal, Boehringer light units (BLU); mean over the file's lines of this peptide [2]: 97.8
B28: P42679 203-216 (peptide)
chain: ISTKLVRPKRKHGT

normalised SPOT signal, Boehringer light units (BLU); mean over the file's lines of this peptide [1]: 317
normalised SPOT signal, Boehringer light units (BLU); mean over the file's lines of this peptide [2]: 225
B32: O15381 730-743 (peptide)
chain: IDPAILRPGRLDKT

normalised SPOT signal, Boehringer light units (BLU); mean over the file's lines of this peptide [1]: 36.5
normalised SPOT signal, Boehringer light units (BLU); mean over the file's lines of this peptide [2]: 28.8
B36: O15488 104-117 (peptide)
chain: HLAFLKRPELGLTL

normalised SPOT signal, Boehringer light units (BLU); mean over the file's lines of this peptide [1]: 304
normalised SPOT signal, Boehringer light units (BLU); mean over the file's lines of this peptide [2]: 87
B37: P55072 629-642 (peptide)
chain: IDPAILRPGRLDQL

normalised SPOT signal, Boehringer light units (BLU); mean over the file's lines of this peptide [1]: 75.1
normalised SPOT signal, Boehringer light units (BLU); mean over the file's lines of this peptide [2]: 45.5
B39: P17812 526-539 (peptide)
chain: HPEFLSRPIKPSPP

normalised SPOT signal, Boehringer light units (BLU); mean over the file's lines of this peptide [1]: 125
normalised SPOT signal, Boehringer light units (BLU); mean over the file's lines of this peptide [2]: 1970
B40: P54368 201-214 (peptide)
chain: HPLVPKRPDASFMA

normalised SPOT signal, Boehringer light units (BLU); mean over the file's lines of this peptide [1]: 4870
normalised SPOT signal, Boehringer light units (BLU); mean over the file's lines of this peptide [2]: 171
B41: O75354 116-129 (peptide)
chain: HVFQFTRPPRETPT

normalised SPOT signal, Boehringer light units (BLU); mean over the file's lines of this peptide [1]: 3540
normalised SPOT signal, Boehringer light units (BLU); mean over the file's lines of this peptide [2]: 4140
B42: P18031 304-318 (peptide)
chain: HIPPPPRPPKRILE

More lines, now with the values behind:

B3: Q9Y4V7 156-169 (peptide)
chain: HYLVPVRPRRQIVY
normalised SPOT signal, Boehringer light units (BLU); mean over the file's lines of this peptide [1]: 5140
normalised SPOT signal, Boehringer light units (BLU); mean over the file's lines of this peptide [2]: 3150

B5: Q9H5T1 190-203 (peptide)
chain: HSFLINRPGKVKYM
normalised SPOT signal, Boehringer light units (BLU); mean over the file's lines of this peptide [1]: 202
normalised SPOT signal, Boehringer light units (BLU); mean over the file's lines of this peptide [2]: 117

B7: P02511 6-19 (peptide)
chain: HHPWIRRPFFPFHS
normalised SPOT signal, Boehringer light units (BLU); mean over the file's lines of this peptide [1]: 17.6
normalised SPOT signal, Boehringer light units (BLU); mean over the file's lines of this peptide [2]: 1870

B8: Q9Y6X8 414-427 (peptide)
chain: AAPEPKRPHIAQVP
normalised SPOT signal, Boehringer light units (BLU); mean over the file's lines of this peptide [1]: 7.5
normalised SPOT signal, Boehringer light units (BLU); mean over the file's lines of this peptide [2]: 108

B9: Q9H7P8 659-673 (peptide)
chain: HLSSPARPPDNLSP
normalised SPOT signal, Boehringer light units (BLU); mean over the file's lines of this peptide [1]: 95.5
normalised SPOT signal, Boehringer light units (BLU); mean over the file's lines of this peptide [2]: 76.9

B10: Q9BXK1 213-226 (peptide)
chain: HPDLLRRPGARSTS
normalised SPOT signal, Boehringer light units (BLU); mean over the file's lines of this peptide [1]: 29.9
normalised SPOT signal, Boehringer light units (BLU); mean over the file's lines of this peptide [2]: 0.2

B11: Q9HBK7 243-256 (peptide)
chain: HLLLFHRPLRASGA
normalised SPOT signal, Boehringer light units (BLU); mean over the file's lines of this peptide [1]: 1690
normalised SPOT signal, Boehringer light units (BLU); mean over the file's lines of this peptide [2]: 33.5

B13: Q9Y4C9 401-414 (peptide)
chain: HHGRIGRPPKYRKI
normalised SPOT signal, Boehringer light units (BLU); mean over the file's lines of this peptide [1]: 160
normalised SPOT signal, Boehringer light units (BLU); mean over the file's lines of this peptide [2]: 150

B14: Q8WWE0 14-27 (peptide)
chain: HRSHLRRPAAPPSP
normalised SPOT signal, Boehringer light units (BLU); mean over the file's lines of this peptide [1]: 58
normalised SPOT signal, Boehringer light units (BLU); mean over the file's lines of this peptide [2]: 55.2

B15: Q9H2L5 59-72 (peptide)
chain: IAWGLRRPIRLQMQ
normalised SPOT signal, Boehringer light units (BLU); mean over the file's lines of this peptide [1]: 489
normalised SPOT signal, Boehringer light units (BLU); mean over the file's lines of this peptide [2]: 846

B21: Q9NWA6 173-186 (peptide)
chain: HQEKPERPLRGGKS
normalised SPOT signal, Boehringer light units (BLU); mean over the file's lines of this peptide [1]: 9960
normalised SPOT signal, Boehringer light units (BLU); mean over the file's lines of this peptide [2]: 2060

B22: Q9BZQ1 159-172 (peptide)
chain: ISHLPSRPVKPNII
normalised SPOT signal, Boehringer light units (BLU); mean over the file's lines of this peptide [1]: 97.4
normalised SPOT signal, Boehringer light units (BLU); mean over the file's lines of this peptide [2]: 120

B23: Q9H6N9 66-79 (peptide)
chain: HTAEFRRPMATGDT
normalised SPOT signal, Boehringer light units (BLU); mean over the file's lines of this peptide [1]: 45.7
normalised SPOT signal, Boehringer light units (BLU); mean over the file's lines of this peptide [2]: 18.7

B24: Q9Y6N1 67-80 (peptide)
chain: ALQPPRRPKSSNPF
normalised SPOT signal, Boehringer light units (BLU); mean over the file's lines of this peptide [1]: 140
normalised SPOT signal, Boehringer light units (BLU); mean over the file's lines of this peptide [2]: 22500

B25: Q9HAP0 257-270 (peptide)
chain: IDPAILRPGRPDQL
normalised SPOT signal, Boehringer light units (BLU); mean over the file's lines of this peptide [1]: 220
normalised SPOT signal, Boehringer light units (BLU); mean over the file's lines of this peptide [2]: 169

B26: Q9H4G7 129-142 (peptide)
chain: ISQKIKRPANSGEL
normalised SPOT signal, Boehringer light units (BLU); mean over the file's lines of this peptide [1]: 45.6
normalised SPOT signal, Boehringer light units (BLU); mean over the file's lines of this peptide [2]: 24.2

B29: Q9NZR2 3964-3977 (peptide)
chain: ISPEFKRPRDIAVD
normalised SPOT signal, Boehringer light units (BLU); mean over the file's lines of this peptide [1]: 30.4
normalised SPOT signal, Boehringer light units (BLU); mean over the file's lines of this peptide [2]: 14.9

B30: P10163 94-108 (peptide)
chain: HPGKPERPPPQGGN
normalised SPOT signal, Boehringer light units (BLU); mean over the file's lines of this peptide [1]: 57.4
normalised SPOT signal, Boehringer light units (BLU); mean over the file's lines of this peptide [2]: 794

B31: Q9P2Q2 580-594 (peptide)
chain: HKGLPPRPPSHNRP
normalised SPOT signal, Boehringer light units (BLU); mean over the file's lines of this peptide [1]: 326
normalised SPOT signal, Boehringer light units (BLU); mean over the file's lines of this peptide [2]: 5020

B33: Q9BXU7 768-781 (peptide)
chain: HTKNLLRPTKLNLQ
normalised SPOT signal, Boehringer light units (BLU); mean over the file's lines of this peptide [1]: 110
normalised SPOT signal, Boehringer light units (BLU); mean over the file's lines of this peptide [2]: 61.7

B34: Q96FM3 493-506 (peptide)
chain: HLWQPKRPAVPKKA
normalised SPOT signal, Boehringer light units (BLU); mean over the file's lines of this peptide [1]: 17.3
normalised SPOT signal, Boehringer light units (BLU); mean over the file's lines of this peptide [2]: 816

B35: Q9NR83 285-299 (peptide)
chain: ALPSPLRPPAPPLP
normalised SPOT signal, Boehringer light units (BLU); mean over the file's lines of this peptide [1]: 299
normalised SPOT signal, Boehringer light units (BLU); mean over the file's lines of this peptide [2]: 1950

B38: Q9P2Y4 181-194 (peptide)
chain: HLHILHRPWKSGLS
normalised SPOT signal, Boehringer light units (BLU); mean over the file's lines of this peptide [1]: 217
normalised SPOT signal, Boehringer light units (BLU); mean over the file's lines of this peptide [2]: 28.3
